Target: T1, FLAG-tagged p33 replication protein (Tomato bushy stunt virus, UniProt P15962 1-296)
T1 construct: p33 replication protein of Tomato bushy stunt virus (tombusvirus); also called FLAG-p33; source: yeast (BY4741, cof1 ts and act1 ts strains), CUP1 promoter, in detergent-solubilized membrane fraction
T1 sequence: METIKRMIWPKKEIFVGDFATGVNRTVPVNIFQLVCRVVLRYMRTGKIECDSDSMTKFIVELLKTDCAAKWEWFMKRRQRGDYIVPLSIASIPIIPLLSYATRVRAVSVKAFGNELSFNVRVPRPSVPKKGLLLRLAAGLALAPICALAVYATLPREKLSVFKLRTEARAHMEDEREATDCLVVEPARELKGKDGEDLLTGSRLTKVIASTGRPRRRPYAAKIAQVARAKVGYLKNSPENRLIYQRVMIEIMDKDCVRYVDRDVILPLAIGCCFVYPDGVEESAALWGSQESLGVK
Test: co-IP; FLAG-affinity column purification of FLAG-p33 (co-expressed with FLAG-p92) from detergent-solubilized membrane fraction of yeast after cross-linking with 1% formaldehyde for 1 h on ice; co-purified His6-tagged host proteins detected by Western blot with anti-His antibody; yeast expressing His6-p33 as control; WT (BY4741), cof1-8 ts, cof1-22 ts, act1-121 ts, act1-132 ts, act1-105 ts and act1-112 ts yeasts at …
Settings: partners not purified

B1: Cdc34 E2 enzyme (ubiquitin-conjugating enzyme) (enzyme, yeast (S. cerevisiae), UniProt P14682 1-295, looked up)
chain: MSSRKSTASSLLLRQYRELTDPKKAIPSFHIELEDDSNIFTWNIGVMVLNEDSIYHGGFFKAQMRFPEDFPFSPPQFRFTPAIYHPNVYRDGRLCISILHQSGDPMTDEPDAETWSPVQTVESVLISIVSLLEDPNINSPANVDAAVDYRKNPEQYKQRVKMEVERSKQDIPKGFIMPTSESAYISQSKLDEPESNKDMADNFWYDSDLDDDENGSVILQDDDYDDGNNHIPFEDDDVYNYNDNDDDDERIEFEDDDDDDDDSIDNDSVMDRKQPHKAEDESEDVEDVERVSKKI
notes: Cdc34 ubiquitin-conjugating enzyme, cellular host factor in yeast; source: yeast (act1-132 ts and WT), co-purified with p33
- co-purified with p33 from act1-132 yeast, percent of co-purification from WT yeast: 207%

B2: His6-tagged Osh6 protein (yeast Osh6p ORP) (natural protein, yeast (S. cerevisiae), UniProt Q02201 1-448, looked up)
chain: MGSKKLTVGSDSHRLSKSSFSSNKSSHSATKDQPIDTDDIDEDDESGHNIILNIISQLRPGCDLTRITLPTFILEKKSMLERVTNQLQFPEFLLQAHSEKDPLKRFLYVMKWYLAGWHIAPKAVKKPLNPVLGEYFTAYWDLPNKQQAYYISEQTSHHPPECAYFYMIPESSIRVDGVVIPKSRFLGNSSAAMMDGSTVLQFLDIKDGNGKPEKYVLTQPNVYVRGILFGKMRIELGDHMIIKSPNFQADIEFKTKGYVFGTYDAIEGTVKDYDGNAYYEISGKWNDVMYLKDLKQPRSSPKVFLDTHKESPLRPKVRPLSEQGEYESRKLWKKVTDALAVRNHPVATEEKFQIEDHQRQLAKKRIEDGVEFHPKLFRRSKPGEDLDYCIYKNIPVDEDPEKQIRSILQIAPILPGQQFTDKFFIPAFEKIKSQKKMIENEKQNPAKQ
notes: also called Osh6 ORP; 6xHis-Osh6p; source: yeast, GAL1 promoter (UpYC-NT-Gal1-OSH6), in detergent-solubilized membrane fraction
- co-purified with p33 from act1-132 yeast, percent of co-purification from WT yeast: 258%

B3: Vps4 AAA ATPase (Vps4p) (enzyme, yeast (S. cerevisiae), UniProt P52917 1-437, looked up)
chain: MSTGDFLTKGIELVQKAIDLDTATQYEEAYTAYYNGLDYLMLALKYEKNPKSKDLIRAKFTEYLNRAEQLKKHLESEEANAAKKSPSAGSGSNGGNKKISQEEGEDNGGEDNKKLRGALSSAILSEKPNVKWEDVAGLEGAKEALKEAVILPVKFPHLFKGNRKPTSGILLYGPPGTGKSYLAKAVATEANSTFFSVSSSDLVSKWMGESEKLVKQLFAMARENKPSIIFIDEVDALTGTRGEGESEASRRIKTELLVQMNGVGNDSQGVLVLGATNIPWQLDSAIRRRFERRIYIPLPDLAARTTMFEINVGDTPCVLTKEDYRTLGAMTEGYSGSDIAVVVKDALMQPIRKIQSATHFKDVSTEDDETRKLTPCSPGDDGAIEMSWTDIEADELKEPDLTIKDFLKAIKSTRPTVNEDDLLKQEQFTRDFGQEGN
notes: Vps4p AAA ATPase, cellular host factor in yeast; source: yeast (act1-132 ts and WT), co-purified with p33
- co-purified with p33 from act1-132 yeast, percent of co-purification from WT yeast: 53%

B4: Tdh2 GAPDH (Tdh2p) (enzyme, yeast (S. cerevisiae), UniProt P00358 1-332, looked up)
chain: MVRVAINGFGRIGRLVMRIALQRKNVEVVALNDPFISNDYSAYMFKYDSTHGRYAGEVSHDDKHIIVDGHKIATFQERDPANLPWASLNIDIAIDSTGVFKELDTAQKHIDAGAKKVVITAPSSTAPMFVMGVNEEKYTSDLKIVSNASCTTNCLAPLAKVINDAFGIEEGLMTTVHSMTATQKTVDGPSHKDWRGGRTASGNIIPSSTGAAKAVGKVLPELQGKLTGMAFRVPTVDVSVVDLTVKLNKETTYDEIKKVVKAAAEGKLKGVLGYTEDAVVSSDFLGDSNSSIFDAAAGIQLSPKFVKLVSWYDNEYGYSTRVVDLVEHVAKA
notes: Tdh2p, glyceraldehyde-3-phosphate dehydrogenase, cellular host factor in yeast; source: yeast (act1-132 ts and WT), co-purified with p33
- co-purified with p33 from act1-132 yeast, percent of co-purification from WT yeast: 111%

B5: Rpn11 deubiquitinase (enzyme, yeast (S. cerevisiae), UniProt P43588 1-306, looked up)
chain: MERLQRLMMNSKVGSADTGRDDTKETVYISSIALLKMLKHGRAGVPMEVMGLMLGEFVDDYTVNVVDVFAMPQSGTGVSVEAVDDVFQAKMMDMLKQTGRDQMVVGWYHSHPGFGCWLSSVDVNTQKSFEQLNSRAVAVVVDPIQSVKGKVVIDAFRLIDTGALINNLEPRQTTSNTGLLNKANIQALIHGLNRHYYSLNIDYHKTAKETKMLMNLHKEQWQSGLKMYDYEEKEESNLAATKSMVKIAEQYSKRIEEEKELTEEELKTRYVGRQDPKKHLSETADETLENNIVSVLTAGVNSVAIK
notes: Rpn11 deubiquitinase, cellular host factor in yeast; source: yeast (act1-132 ts and WT), co-purified with p33
- co-purified with p33 from act1-132 yeast, percent of co-purification from WT yeast: 161%

B6: Pbp2 RNA binding protein (natural protein, yeast (S. cerevisiae), UniProt P38151 1-413, looked up)
chain: MSTETTKPSITTTPTTVLVSPNTLKRKKGEDTSEEQLEAEIKRVALKDADSHSDNDHDSPDNVPSDVHLRMLCLVKHASLIVGHKGATISRIKSETSARINISNNIRGVPERIVYVRGTCDDVAKAYGMIVRALLEEHGNEDNGEDIEISINLLIPHHLMGCIIGKRGSRLREIEDLSAAKLFASPNQLLLSNDRILTINGVPDAIHIATFYISQTLLNFQMESPQKNVKRSIYYQPTQFNSVLIDHSQPNTIFHQRNHQYHPSDKLLSYKPNKNLPISSTLLSMATPQYTTASVANATAFQPNFVIPNVTVLDGPVISPAPGNHLLMNFVQQEIFIDEKFVGNVIGKDGKHINSVKESTGCSIIIQDPVEGSSERRLTIRGTFMASQAAIMLISNKIEIDRSNAERKRRSPL
notes: source: yeast (act1-132 ts and WT), co-purified with p33
- co-purified with p33 from act1-132 yeast, percent of co-purification from WT yeast: 85%

B7: 6xHis-Vap27-1 (VAP protein, Scs2-like plant ortholog) (natural protein, UniProt Q8VZ95 1-256, looked up)
chain: MSNIDLIGMSNRDLIGMSNSELLTVEPLDLQFPFELKKQISCSLYLTNKTDNNVAFKVKTTNPKKYCVRPNTGVVLPRSTCEVLVTMQAQKEAPSDMQCKDKFLLQGVIASPGVTAKEVTPEMFSKEAGHRVEETKLRVTYVAPPRPPSPVHEGSEEGSSPRASVSDNGHGSEFSFERFIVDNKAGHQENTSEARALITKLTEEKQSAIQLNNRLQRELDQLRRESKKSQSGGIPFMYVLLVGLIGLILGYIMKRT
notes: Vap27-1, VAMP-associated protein, a plant ortholog of yeast Scs2p; also called Vap27-1 (Scs2-like); ER-localized Vap27-1; source: expressed in yeast, in detergent-solubilized membrane fraction
- co-purified with p33 from act1-132 yeast, percent of co-purification from WT yeast: 218%

B8: Tef1 eEF1A (Tef1p) (natural protein, yeast (S. cerevisiae), UniProt P02994 1-458, looked up)
chain: MGKEKSHINVVVIGHVDSGKSTTTGHLIYKCGGIDKRTIEKFEKEAAELGKGSFKYAWVLDKLKAERERGITIDIALWKFETPKYQVTVIDAPGHRDFIKNMITGTSQADCAILIIAGGVGEFEAGISKDGQTREHALLAFTLGVRQLIVAVNKMDSVKWDESRFQEIVKETSNFIKKVGYNPKTVPFVPISGWNGDNMIEATTNAPWYKGWEKETKAGVVKGKTLLEAIDAIEQPSRPTDKPLRLPLQDVYKIGGIGTVPVGRVETGVIKPGMVVTFAPAGVTTEVKSVEMHHEQLEQGVPGDNVGFNVKNVSVKEIRRGNVCGDAKNDPPKGCASFNATVIVLNHPGQISAGYSPVLDCHTAHIACRFDELLEKNDRRSGKKLEDHPKFLKSGDAALVKFVPSKPMCVEAFSEYPPLGRFAVRDMRQTVAVGVIKSVDKTEKAAKVTKAAQKAAKK
notes: Tef1p, eukaryotic elongation factor 1A, cellular host factor in yeast; source: yeast (act1-132 ts and WT), co-purified with p33
- co-purified with p33 from act1-132 yeast, percent of co-purification from WT yeast: 96%

B9: Vps23 ESCRT I (Vps23p ESCRT factor) (natural protein, yeast (S. cerevisiae), UniProt P25604 1-385, looked up)
chain: MSANGKISVPEAVVNWLFKVIQPIYNDGRTTFHDSLALLDNFHSLRPRTRVFTHSDGTPQLLLSIYGTISTGEDGSSPHSIPVIMWVPSMYPVKPPFISINLENFDMNTISSSLPIQEYIDSNGWIALPILHCWDPAAMNLIMVVQELMSLLHEPPQDQAPSLPPKPNTQLQQEQNTPPLPPKPKSPHLKPPLPPPPPPQPASNALDLMDMDNTDISPTNHHEMLQNLQTVVNELYREDVDYVADKILTRQTVMQESIARFHEIIAIDKNHLRAVEQAIEQTMHSLNAQIDVLTANRAKVQQFSSTSHVDDEDVNSIAVAKTDGLNQLYNLVAQDYALTDTIECLSRMLHRGTIPLDTFVKQGRELARQQFLVRWHIQRITSPLS
notes: Vps23p, ESCRT-I factor, cellular host factor in yeast; source: yeast (act1-132 ts and WT), co-purified with p33
- co-purified with p33 from act1-132 yeast, percent of co-purification from WT yeast: 108%
